This is an account of results in the RNAGym collection of RNA variant scans (doi:10.7554/elife.90254).

B1: OR4K15 (parent)
chain: GUUAACGGUCAUAGGCCAUGGAAACUAGGAGCACCAUUUCGCUGCCAGUGAAGAAAUGAACAAAGAAAAUCUGGGCCAGGCAGGCAUCAAAAGAAAUAGUCUUGCGCUCAACCAGAAAGUCUGUAAUCAUUUUAAGGGUA

This data set covers variants of B1. Nature of the data set: self-cleavage, relative activity (ratio to wild type); higher = more cleavage; in vitro, sequencing; the parent is a self-cleaving ribozyme.
Consider C6U A118G, for which the self-cleavage was 1.06.
In the case of C6G U130C, the self-cleavage came out at 0.63.
On to A5G U38A, for which the self-cleavage amounted to 0.58.
Next, A5G U38C: 1.14.
On to U9A C32U, for which the self-cleavage came to 1.2.
Consider G8C A110G, for which the self-cleavage worked out at 0.26.
The result for C6U A82G reads 0.72.
Consider G7C A23G, for which the self-cleavage was found to be 0.73.
For A5U U26C, the self-cleavage was 0.57.
Turning to A5G A63U, the self-cleavage was determined as 1.35.
As for A5G A92G, the self-cleavage was 0.53.
Next, U9C A66U: 1.42; U9A A117G: 2.34; U9C A56G: 1.24.
As to C6A A94G, the self-cleavage is 0.36.
In the case of G7C A91G, the self-cleavage amounted to 0.76.
Regarding U9A A56G, the self-cleavage came out at 1.3.
With A5G A55C, the self-cleavage came out at 0.33.
As for G7A A111U, the self-cleavage came to 0.04.
The result for U9A A111G reads 0.03.
The result for A5G A56U reads 1.18; that for A5U A56G, 1.76.
For the variant A5U A56U, the self-cleavage amounted to 1.15.
Consider U9A A82G, for which the self-cleavage stood at 1.13.
Next, U9A A82U: 0.12; A5G G137U: 1.62; U9A A23G: 0.95.
The result for A5G G44A reads 0.86.
Consider U9C A59U, for which the self-cleavage is 1.48.
On to G7U G21A, for which the self-cleavage was 0.87.
In the case of C6A U43C, the self-cleavage came out at 0.5.
Turning to A5G A78C, the self-cleavage is 0.62.
For the variant A5G A118G, the self-cleavage was found to be 1.
Next, A5G A118U: 0.56; A5G G48U: 0.93.
With A5U G44U, the self-cleavage was 0.8.
Consider G8A A134G, for which the self-cleavage worked out at 1.52.
Turning to G8U U108A, the self-cleavage came out at 0.
Next, C6U A96G: 1.1; A5U A62C: 1.64.
For A5G A129G, the self-cleavage was 0.87.
Next, G7U G137U: 1.84; G8A A47C: 1.67; A5G G21U: 0.96.
With C6A A33U, the self-cleavage was determined as 1.06.
As to A5U U39C, the self-cleavage came out at 1.1.
With A5G A62U, the self-cleavage amounted to 1.09.
On to U9A A36G, for which the self-cleavage came out at 1.59.
Next, A5U U131C: 1.52.
Regarding G7A G75U, the self-cleavage turned out to be 0.13.
As for U9C A23G, the self-cleavage was found to be 1.02.
For the variant C6U A18G, the self-cleavage was determined as 0.91.
In the case of U9A A51U, the self-cleavage stood at 1.34.
Regarding U9A A51G, the self-cleavage is 1.66.
Regarding C6A U124A, the self-cleavage amounted to 0.95.
For A5G U37C, the self-cleavage was 1.29.
The result for A5G U37A reads 1.3; that for A5G U87A, 0.62.
For G8A A68G, the self-cleavage is 2.15.
Take A5G A134U: the self-cleavage turned out to be 1.24.
Turning to U9C A63G, the self-cleavage is 1.64.
In the case of C6U A114U, the self-cleavage worked out at 0.07.
In the case of A5U G104A, the self-cleavage came out at 0.09.
For the variant A5G A135U, the self-cleavage is 1.26.
The result for U9C A22U reads 1.7; that for U9A U122G, 2.09.
The result for A5G A22G reads 0.81.
The result for A5G A22U reads 1.01; that for U9A A135U, 1.
Consider U9A A135G, for which the self-cleavage was found to be 1.41.
Next, G8A A117U: 1.67.
Consider C6A A11G, for which the self-cleavage amounted to 2.1.
As for G7A U127C, the self-cleavage worked out at 1.29.
C6G U19A: the self-cleavage turned out to be 1.65.
On to C6U G106U, for which the self-cleavage amounted to 0.06.
As to G7A A54G, the self-cleavage was determined as 0.81.
On to C6G A126G, for which the self-cleavage came out at 1.2.
On to A5U A51U, for which the self-cleavage came out at 0.66.
U9A U72C: the self-cleavage amounted to 0.16.
Take A5U U70C: the self-cleavage is 1.03.
Next, U9A A63G: 1.23; A5G U57A: 1.09.
Regarding A5G U57G, the self-cleavage came to 1.17.
With G8U A69G, the self-cleavage was 2.76.
Take C6A A125G: the self-cleavage is 0.29.
A5G G29A: the self-cleavage came out at 1.06.
Next, G7U A18G: 1.68; U9C A82C: 0.07.
The result for G7U U130C reads 1.45.
On to A5U U87A, for which the self-cleavage came out at 1.2.
C6U U37C: the self-cleavage came to 1.08.
The result for A5U G29U reads 1.39.
For the variant A5U G29A, the self-cleavage came to 1.2.
For the variant A5G U130C, the self-cleavage was found to be 1.01.
Consider C6A U38A, for which the self-cleavage was determined as 0.42.
Take G7U A91G: the self-cleavage stood at 0.72.
For the variant C6A A116G, the self-cleavage worked out at 0.77.
With A5G C45A, the self-cleavage came out at 0.99.
In the case of A5G U102C, the self-cleavage amounted to 1.34.
As for U9A A129U, the self-cleavage is 1.02.
Take G7A A23G: the self-cleavage was 0.87.
Consider A5G A18G, for which the self-cleavage came out at 0.8.
In the case of A5G A18U, the self-cleavage came to 1.12.
For G7U A23G, the self-cleavage is 1.04.
Take G7U A23C: the self-cleavage was determined as 1.66.
On to G8A A69G, for which the self-cleavage turned out to be 1.29.
The result for U9C A78G reads 0.32; that for C6U A11G, 0.47.
G7U U38C: the self-cleavage was determined as 0.4.
For the variant G7U A13G, the self-cleavage stood at 1.41.
As for U9A U139C, the self-cleavage was determined as 1.69.
Next, A5G C40U: 1.31.
C6A U49G: the self-cleavage stood at 0.61.
A5G C85U: the self-cleavage amounted to 0.92.
Next, U9C A95G: 1.88.
As for G7A A13U, the self-cleavage was found to be 1.19.
On to A5G A24C, for which the self-cleavage came to 0.68.
On to U9A U70C, for which the self-cleavage was determined as 1.07.
With C6G U87C, the self-cleavage amounted to 0.65.
With G8U A126G, the self-cleavage is 0.32.
In the case of G8A U122C, the self-cleavage was 0.6.
Consider G7U U26C, for which the self-cleavage was 2.12.
On to A5U A90G, for which the self-cleavage was determined as 0.78.
Next, A5G G83A: 1.54; A5U U120C: 0.76.
On to A5G A33U, for which the self-cleavage was 1.01.
Regarding A5G A33C, the self-cleavage came to 1.28.
Turning to A5G A33G, the self-cleavage was found to be 0.67.
Next, A5U U9C: 1.27.
Turning to G7U U122A, the self-cleavage came to 1.64.
In the case of C6U U130G, the self-cleavage was 0.44.
As to C6U U130C, the self-cleavage was found to be 0.74.
With U9C A51U, the self-cleavage was 2.13.
Take U9A U108C: the self-cleavage is 0.03.
In the case of A5G A11G, the self-cleavage came to 0.63.
Take A5G U9A: the self-cleavage worked out at 1.38.
On to U9C A55G, for which the self-cleavage was found to be 1.28.
For G7A C112U, the self-cleavage was 0.02.
Next, G7A C34U: 1.3.
Consider A5G C101A, for which the self-cleavage is 0.25.
In the case of A5U A114G, the self-cleavage is 0.49.
As for C6U U102C, the self-cleavage amounted to 0.35.
Regarding U9C A62G, the self-cleavage turned out to be 1.49.
In the case of U9C A27G, the self-cleavage came to 1.55.
With U9C A27U, the self-cleavage came to 1.02.
Next, U9C A18G: 1.65; A5U A47G: 1.
Next, U9C A11G: 0.85; U9C A11C: 1.71.
Take U9A A86U: the self-cleavage turned out to be 1.37.
On to G8A A33U, for which the self-cleavage is 2.08.
Turning to A5U A95G, the self-cleavage turned out to be 1.59.
With U9A A22C, the self-cleavage came to 0.95.
On to U9C A69G, for which the self-cleavage was determined as 1.38.
Take U9A A116G: the self-cleavage is 0.45.
U9A A116U: the self-cleavage was 0.18.
On to A5G G15A, for which the self-cleavage was found to be 1.02.
Next, U9A U132C: 0.79; A5G U70A: 0.75.
Consider A5G A23G, for which the self-cleavage came to 0.8.
Take A5U A111G: the self-cleavage came out at 0.06.
Consider A5G A52U, for which the self-cleavage amounted to 0.85.
Consider U9A U39C, for which the self-cleavage was 0.86.
A5G G99A: the self-cleavage was 0.66.
Turning to G8A A98G, the self-cleavage was 1.78.
Next, A5U A36U: 2.27; A5G A51G: 1.2.
